For this data set, the system named is thrombostasin (thrombin inhibitor of Haematobia irritans saliva; tested as whole serotonin-induced saliva).

The values that follow come from patent publication US6451992.

As to bovine thrombin, the “rates of hydrolysis of chromogenic substrate S238 (2.5-100 µM) by bovine thrombin (250 pM) alone and in the presence of horn fly saliva (equivalent to 2 flies)” value is recorded as “it may be a competitive inhibitor, as its effect is diminished when substrate is unlimited (100 µM)”.
